In US20230220381:

How the values were obtained:
[1] = target: T1, Thrombin (Homo sapiens) (UniProt P00734+P00734); assay: FP
[2] = target: T1, Thrombin (Homo sapiens); assay: MST; conditions: Phe at library positions 5 and 3, C12 at position 4, Nap at position 1 (3' end) (unnatural monomers); 2Bind, N=2, 100 nM aptamer, buffer without Triton X; unit given as nmol

Work on “CGTCGAGGCCCGTGCTTACCCGTGACCTTCTTAGGAGGTTGGNGTGGNTGGTTTTTACACGTCACGCCTTTTTTTTT [TBA2F]” yielded a Kd ([1]; branched DNA-encoded construct with BU, aptamer branch GGTTGGC12GTGGAlkTGGTTTTT (C12 and Alk unnatural phosphodiester monomers), same buffer as TBA1F) of 89 nM.

GGGTGGPHECTGGPHETGGNAP [Aptamer3] gave a Kd ([1]; Phe at library positions 5 and 3, C12 at position 4, Nap at position 1 (3' end) (unnatural monomers), fluorescence anisotropy with 0.1 mg/mL sheared salmon sperm DNA, N=3, unit given as nmol) of 5 nM, a Kd ([1]; Phe at library positions 5 and 3, C12 at position 4, Nap at position 1 (3' end) (unnatural monomers), fluorescence anisotropy, thrombin binding buffer, unit given as nmol) of 6 nM and a Kd [2] of 20 nM.

In the case of GGTPTGGPHECTGGTTGGG [Aptamer2], the Kd ([1]; Trp at library position 7, Phe at position 5, C12 at position 4 (unnatural monomers), fluorescence anisotropy, unit given as nmol) is reported as 10 nM and the Kd ([1]; Trp at library position 7, Phe at position 5, C12 at position 4 (unnatural monomers), with 0.1 mg/mL salmon sperm DNA, N=3, unit given as nmol) is reported as 10 nM.

Work on GGTTGGPHEGTGGTTGGT [Aptamer1] yielded a Kd ([1]; Phe unnatural monomer at library position 5, fluorescence anisotropy, unit given as nmol) of 26 nM.

“GGTTGGTGTGGTTGGNAP [Aptamer4 of Table 9 (Nap at position 1; Aptamer5 in FIG. 12)]” was tested, and the Kd ([1]; Nap unnatural monomer at library position 1 (3' end), unit given as nmol, Aptamer4/5 naming swapped in FIG. 12, Table 9 sequence used) was 24 nM.
